{"source": "patent US6703362", "about": "(CYTOGEN, dated 2004)", "binders": {"B1": {"name": "SNi28 (peptide)", "peptide": "SHSGGMNRAYGDVFRELRDRWNATSHHTRPTPQLPRGPNAETVESCLAKPHTENSFTNVWKDDKTLDRYANYEGCLWNATGVVVCTGDETQCYGTWVPIGLAIPENEGGGSEGGGSEGGGSEGGGTKPPEYGDTPIPGYTYINPLDGTYPPGTEQNPANPNPSLEESQPLNTFMFQNNRFRNRQGALTVYTGTVTQGTDPVKTYYQYTPVSSKAMYDAYWNGKFRDCAFHSGFNEDPFVCEYQGQSSDLPQPPVNAGGGSGGGSGGGSEGGGSEGGGSEGGGSEGGGSGGGSGSGDFDYEKMANANKGAMTENADENALQSDAKGKLDSVATDYGAAIDGFIGDVSGLANGNGATGDFAGSNSQMAQVGDGDNSPLMNNFRQYLPSLPQSVECRPFVFSAGKPYEFSIDCDKINLFRGVFAFLLYVATFMYVFSTFANILRNKES", "notes": "Assayed as M13 phage clone displaying the insert"}, "B2": {"name": "SNi10 (peptide)", "peptide": "RVGQCTDSDVRRPWARSCAHQGCGAGTRNSHGCITRPLRQASAHAETVESCLAKPHTENSFTNVWKDDKTLDRYANYEGCLWNATGVVVCTGDETQCYGTWVPIGLAIPENEGGGSEGGGSEGGGSEGGGTKPPEYGDTPIPGYTYINPLDGTYPPGTEQNPANPNPSLEESQPLNTFMFQNNRFRNRQGALTVYTGTVTQGTDPVKTYYQYTPVSSKAMYDAYWNGKFRDCAFHSGFNEDPFVCEYQGQSSDLPQPPVNAGGGSGGGSGGGSEGGGSEGGGSEGGGSEGGGSGGGSGSGDFDYEKMANANKGAMTENADENALQSDAKGKLDSVATDYGAAIDGFIGDVSGLANGNGATGDFAGSNSQMAQVGDGDNSPLMNNFRQYLPSLPQSVECRPFVFSAGKPYEFSIDCDKINLFRGVFAFLLYVATFMYVFSTFANILRNKES", "notes": "as for B1"}, "B3": {"name": "SNiAX6 (peptide)", "peptide": "RTTTAKGCLLGSFGVLSGCSFTPTSPPPHLGYPPHSVNAETVESCLAKPHTENSFTNVWKDDKTLDRYANYEGCLWNATGVVVCTGDETQCYGTWVPIGLAIPENEGGGSEGGGSEGGGSEGGGTKPPEYGDTPIPGYTYINPLDGTYPPGTEQNPANPNPSLEESQPLNTFMFQNNRFRNRQGALTVYTGTVTQGTDPVKTYYQYTPVSSKAMYDAYWNGKFRDCAFHSGFNEDPFVCEYQGQSSDLPQPPVNAGGGSGGGSGGGSEGGGSEGGGSEGGGSEGGGSGGGSGSGDFDYEKMANANKGAMTENADENALQSDAKGKLDSVATDYGAAIDGFIGDVSGLANGNGATGDFAGSNSQMAQVGDGDNSPLMNNFRQYLPSLPQSVECRPFVFSAGKPYEFSIDCDKINLFRGVFAFLLYVATFMYVFSTFANILRNKES", "notes": "as for B1"}, "B4": {"name": "SNi45 (peptide)", "peptide": "SGGEVSSWGRVNDLCARVSWTGCGTARSARTDNKGFLPKHSSLRAETVESCLAKPHTENSFTNVWKDDKTLDRYANYEGCLWNATGVVVCTGDETQCYGTWVPIGLAIPENEGGGSEGGGSEGGGSEGGGTKPPEYGDTPIPGYTYINPLDGTYPPGTEQNPANPNPSLEESQPLNTFMFQNNRFRNRQGALTVYTGTVTQGTDPVKTYYQYTPVSSKAMYDAYWNGKFRDCAFHSGFNEDPFVCEYQGQSSDLPQPPVNAGGGSGGGSGGGSEGGGSEGGGSEGGGSEGGGSGGGSGSGDFDYEKMANANKGAMTENADENALQSDAKGKLDSVATDYGAAIDGFIGDVSGLANGNGATGDFAGSNSQMAQVGDGDNSPLMNNFRQYLPSLPQSVECRPFVFSAGKPYEFSIDCDKINLFRGVFAFLLYVATFMYVFSTFANILRNKES", "notes": "as for B1"}, "B5": {"name": "SNi38 (peptide)", "peptide": "RGAADQRRGWSENLGLPRVGWDAIAHNSYTFTSRRPRPPAETVESCLAKPHTENSFTNVWKDDKTLDRYANYEGCLWNATGVVVCTGDETQCYGTWVPIGLAIPENEGGGSEGGGSEGGGSEGGGTKPPEYGDTPIPGYTYINPLDGTYPPGTEQNPANPNPSLEESQPLNTFMFQNNRFRNRQGALTVYTGTVTQGTDPVKTYYQYTPVSSKAMYDAYWNGKFRDCAFHSGFNEDPFVCEYQGQSSDLPQPPVNAGGGSGGGSGGGSEGGGSEGGGSEGGGSEGGGSGGGSGSGDFDYEKMANANKGAMTENADENALQSDAKGKLDSVATDYGAAIDGFIGDVSGLANGNGATGDFAGSNSQMAQVGDGDNSPLMNNFRQYLPSLPQSVECRPFVFSAGKPYEFSIDCDKINLFRGVFAFLLYVATFMYVFSTFANILRNKES", "notes": "as for B1"}, "B6": {"name": "SNi34 (peptide)", "peptide": "SPCGGSWGRFMQGGLFGGRTDGCGAHRNRTSASLEPPSSDYAETVESCLAKPHTENSFTNVWKDDKTLDRYANYEGCLWNATGVVVCTGDETQCYGTWVPIGLAIPENEGGGSEGGGSEGGGSEGGGTKPPEYGDTPIPGYTYINPLDGTYPPGTEQNPANPNPSLEESQPLNTFMFQNNRFRNRQGALTVYTGTVTQGTDPVKTYYQYTPVSSKAMYDAYWNGKFRDCAFHSGFNEDPFVCEYQGQSSDLPQPPVNAGGGSGGGSGGGSEGGGSEGGGSEGGGSEGGGSGGGSGSGDFDYEKMANANKGAMTENADENALQSDAKGKLDSVATDYGAAIDGFIGDVSGLANGNGATGDFAGSNSQMAQVGDGDNSPLMNNFRQYLPSLPQSVECRPFVFSAGKPYEFSIDCDKINLFRGVFAFLLYVATFMYVFSTFANILRNKES", "notes": "as for B1"}, "B7": {"name": "SNiAX2 (peptide)", "peptide": "SDSDGDHYGLRGGVRCSLRDRGCGLALSTVHAGPPSFYPKLSSPAETVESCLAKPHTENSFTNVWKDDKTLDRYANYEGCLWNATGVVVCTGDETQCYGTWVPIGLAIPENEGGGSEGGGSEGGGSEGGGTKPPEYGDTPIPGYTYINPLDGTYPPGTEQNPANPNPSLEESQPLNTFMFQNNRFRNRQGALTVYTGTVTQGTDPVKTYYQYTPVSSKAMYDAYWNGKFRDCAFHSGFNEDPFVCEYQGQSSDLPQPPVNAGGGSGGGSGGGSEGGGSEGGGSEGGGSEGGGSGGGSGSGDFDYEKMANANKGAMTENADENALQSDAKGKLDSVATDYGAAIDGFIGDVSGLANGNGATGDFAGSNSQMAQVGDGDNSPLMNNFRQYLPSLPQSVECRPFVFSAGKPYEFSIDCDKINLFRGVFAFLLYVATFMYVFSTFANILRNKES", "notes": "as for B1"}, "B8": {"name": "DAX24 (peptide)", "peptide": "RMEDIKNSGWRDSCRWGDLRPGCGSRQWYPSNMRSSRDYPAGGHAETVESCLAKPHTENSFTNVWKDDKTLDRYANYEGCLWNATGVVVCTGDETQCYGTWVPIGLAIPENEGGGSEGGGSEGGGSEGGGTKPPEYGDTPIPGYTYINPLDGTYPPGTEQNPANPNPSLEESQPLNTFMFQNNRFRNRQGALTVYTGTVTQGTDPVKTYYQYTPVSSKAMYDAYWNGKFRDCAFHSGFNEDPFVCEYQGQSSDLPQPPVNAGGGSGGGSGGGSEGGGSEGGGSEGGGSEGGGSGGGSGSGDFDYEKMANANKGAMTENADENALQSDAKGKLDSVATDYGAAIDGFIGDVSGLANGNGATGDFAGSNSQMAQVGDGDNSPLMNNFRQYLPSLPQSVECRPFVFSAGKPYEFSIDCDKINLFRGVFAFLLYVATFMYVFSTFANILRNKES", "notes": "as for B1"}, "B9": {"name": "DAX27 (peptide)", "peptide": "SHPWYRHWNHGDFSGSGQSRHTPPESPHPGRPNATIAETVESCLAKPHTENSFTNVWKDDKTLDRYANYEGCLWNATGVVVCTGDETQCYGTWVPIGLAIPENEGGGSEGGGSEGGGSEGGGTKPPEYGDTPIPGYTYINPLDGTYPPGTEQNPANPNPSLEESQPLNTFMFQNNRFRNRQGALTVYTGTVTQGTDPVKTYYQYTPVSSKAMYDAYWNGKFRDCAFHSGFNEDPFVCEYQGQSSDLPQPPVNAGGGSGGGSGGGSEGGGSEGGGSEGGGSEGGGSGGGSGSGDFDYEKMANANKGAMTENADENALQSDAKGKLDSVATDYGAAIDGFIGDVSGLANGNGATGDFAGSNSQMAQVGDGDNSPLMNNFRQYLPSLPQSVECRPFVFSAGKPYEFSIDCDKINLFRGVFAFLLYVATFMYVFSTFANILRNKES", "notes": "as for B1"}, "B10": {"name": "DAB30 (peptide)", "peptide": "SGFWEFSRGLWDGENRKSVRSGCGFRGSSAQGPCPVTPATIDKHAETVESCLAKPHTENSFTNVWKDDKTLDRYANYEGCLWNATGVVVCTGDETQCYGTWVPIGLAIPENEGGGSEGGGSEGGGSEGGGTKPPEYGDTPIPGYTYINPLDGTYPPGTEQNPANPNPSLEESQPLNTFMFQNNRFRNRQGALTVYTGTVTQGTDPVKTYYQYTPVSSKAMYDAYWNGKFRDCAFHSGFNEDPFVCEYQGQSSDLPQPPVNAGGGSGGGSGGGSEGGGSEGGGSEGGGSEGGGSGGGSGSGDFDYEKMANANKGAMTENADENALQSDAKGKLDSVATDYGAAIDGFIGDVSGLANGNGATGDFAGSNSQMAQVGDGDNSPLMNNFRQYLPSLPQSVECRPFVFSAGKPYEFSIDCDKINLFRGVFAFLLYVATFMYVFSTFANILRNKES", "notes": "as for B1"}, "B11": {"name": "DAX15 (peptide)", "peptide": "SESGRCRSVSRWMTTWQTQKGGCGSNVSRGSPLDPSHQTGHATTAETVESCLAKPHTENSFTNVWKDDKTLDRYANYEGCLWNATGVVVCTGDETQCYGTWVPIGLAIPENEGGGSEGGGSEGGGSEGGGTKPPEYGDTPIPGYTYINPLDGTYPPGTEQNPANPNPSLEESQPLNTFMFQNNRFRNRQGALTVYTGTVTQGTDPVKTYYQYTPVSSKAMYDAYWNGKFRDCAFHSGFNEDPFVCEYQGQSSDLPQPPVNAGGGSGGGSGGGSEGGGSEGGGSEGGGSEGGGSGGGSGSGDFDYEKMANANKGAMTENADENALQSDAKGKLDSVATDYGAAIDGFIGDVSGLANGNGATGDFAGSNSQMAQVGDGDNSPLMNNFRQYLPSLPQSVECRPFVFSAGKPYEFSIDCDKINLFRGVFAFLLYVATFMYVFSTFANILRNKES", "notes": "as for B1"}}}
{"biological_target": "T1, hSI receptor domain (human sucrase-isomaltase complex, amino acid residues 272-667), His-tag fusion protein (human, UniProt P14410 272-667)", "T1 construct": "also called hS1; recombinant hSI; not shown: poly-histidine tag (pET vector) at the NH2-terminal end", "T1 sequence (P14410 272-667, one chain of several)": "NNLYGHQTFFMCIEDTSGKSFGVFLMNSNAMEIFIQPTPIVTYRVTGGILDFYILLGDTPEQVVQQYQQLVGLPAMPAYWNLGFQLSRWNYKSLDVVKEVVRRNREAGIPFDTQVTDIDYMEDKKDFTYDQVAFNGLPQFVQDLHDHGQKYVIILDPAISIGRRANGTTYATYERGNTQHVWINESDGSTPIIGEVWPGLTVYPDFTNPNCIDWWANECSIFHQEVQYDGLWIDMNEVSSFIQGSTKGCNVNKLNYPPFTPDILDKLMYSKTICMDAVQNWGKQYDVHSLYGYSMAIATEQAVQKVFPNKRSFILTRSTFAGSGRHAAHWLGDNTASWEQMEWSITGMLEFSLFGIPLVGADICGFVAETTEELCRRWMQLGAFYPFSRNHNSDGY", "experiment": "phage ELISA, OD on hSI over OD on BSA", "method": "(§1) 6.6. Receptor ELISA Procedure 96 well plates were coated overnight with GIT receptor, BSA and, optionally, IDE (insulin degrading enzyme, an irrelevant His-fusion protein)or hTF. The plates were blocked for one hour with 0.5% BSA-PBS. After clarification, the amplified phage were diluted 1:100 in […] plus 0.05% Tween 20 in PBS and added to the plates. Following incubation of the plates on a rotator for 1 to 2 hours, the plates were washed 5 times with 1% BSA plus 0.05% Tween 20 in PBS. […] After the plates were washed 5 times, as described above, TMB substrate was added to the wells. The plates were read at 650 nm absorbance.", "units": {"hSI/BSA": "ratio"}}
{"binder": "B1", "hSI/BSA": 8}
{"binder": "B2", "hSI/BSA": 11}
{"binder": "B3", "hSI/BSA": 7}
{"binder": "B4", "hSI/BSA": 9}
{"binder": "B5", "hSI/BSA": 6}
{"binder": "B6", "hSI/BSA": 7}
{"binder": "B7", "hSI/BSA": 6}
{"biological_target": "T1, hSI receptor domain (human …)", "experiment": "phage ELISA, plate coated with hSI domain", "method": "as §1", "units": {"OD": "OD"}}
{"binder": "B1", "OD": 0.942}
{"binder": "B2", "OD": 0.57}
{"binder": "B3", "OD": 0.369}
{"binder": "B4", "OD": 0.518}
{"binder": "B5", "OD": 0.466}
{"binder": "B6", "OD": 0.761}
{"binder": "B7", "OD": 0.383}
{"biological_target": "T2, D2H receptor domain (human D2H transporter, amino acid residues 387-685), His-tag fusion protein (human, UniProt Q07837 387-685)", "T2 construct": "purified under denaturing conditions; also called recombinant D2H; not shown: poly-histidine tag (pET vector) at the NH2-terminal end", "T2 sequence": "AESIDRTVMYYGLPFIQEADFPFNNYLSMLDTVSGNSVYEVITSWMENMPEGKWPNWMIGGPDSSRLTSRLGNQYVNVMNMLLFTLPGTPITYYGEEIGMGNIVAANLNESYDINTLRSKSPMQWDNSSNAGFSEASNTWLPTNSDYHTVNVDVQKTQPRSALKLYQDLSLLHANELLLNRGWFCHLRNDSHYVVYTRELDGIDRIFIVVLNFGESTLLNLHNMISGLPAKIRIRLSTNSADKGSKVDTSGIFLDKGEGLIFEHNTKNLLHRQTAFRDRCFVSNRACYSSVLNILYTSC", "experiment": "phage ELISA, plate coated with D2H domain", "method": "as §1", "units": {"OD": "OD"}}
{"binder": "B8", "OD": 0.591}
{"binder": "B9", "OD": 1.58}
{"binder": "B10", "OD": 0.704}
{"binder": "B11", "OD": 0.391}
